Test results as given in patent EP1175513B1, “MinK-RELATED GENES, FORMATION OF POTASSIUM [sequence] AND ASSOCIATION WITH CARDIAC [sequence]” (The University of Utah Research Foundation, priority 1999, dated 2000).

B1: rMiRP1 (other)
chain: MTTLANLTQTLEDAFKKVFITYMDSWRRNTTAEQQALQARVDAENFYYVILYLMVMIGMFAFIVVAILVSTVKSKRREHSQDPYHQYIVEDWQQKYRSQILHLEDSKATIHENLGATGFTVSP

Experiments:
HERG = HERG (human, UniProt Q12809 1-1159); experiment: cell-based or functional assay
[1] = molecular target: T1, channels formed with Q9E-hMiRP1 (Homo sapiens, UniProt Q12809); experiment: Clarithromycin blockade of channels expressed in CHO cells; settings: effect of clarithromycin (Fig. 9C)
[2] = molecular target: T1, channels formed with Q9E-hMiRP1; experiment: in vitro; settings: cho cells
[3] = molecular target: channels formed with wild type hMiRP1 (Homo sapiens, UniProt Q12809); experiment: Clarithromycin blockade of channels expressed in CHO cells; settings: effect of clarithromycin (Fig. 9C)
[4] = human, in vivo, po
Procedure: To test the hypothesis that MiRP1 mutants cause cardiac arrhythmia, we screened a panel of 20 patients with drug-induced arrhythmia and 230 patients with inherited or sporadic arrhythmias and no mutations in their KVLQT1, HERG, SCN5A or KCNE1 genes.
Q9E-hMiRP1. […] The patient is a person with a history of high blood pressure, non-insulin dependent diabetes and stroke. […] The patient was admitted to the hospital with pneumonia and treated with 7 doses of intravenous erythromycin, 500 mg every 6 hours and then switched to oral clarithromycin, 500 mg every 12 hours.

T1 sequence (Q12809 whole entry): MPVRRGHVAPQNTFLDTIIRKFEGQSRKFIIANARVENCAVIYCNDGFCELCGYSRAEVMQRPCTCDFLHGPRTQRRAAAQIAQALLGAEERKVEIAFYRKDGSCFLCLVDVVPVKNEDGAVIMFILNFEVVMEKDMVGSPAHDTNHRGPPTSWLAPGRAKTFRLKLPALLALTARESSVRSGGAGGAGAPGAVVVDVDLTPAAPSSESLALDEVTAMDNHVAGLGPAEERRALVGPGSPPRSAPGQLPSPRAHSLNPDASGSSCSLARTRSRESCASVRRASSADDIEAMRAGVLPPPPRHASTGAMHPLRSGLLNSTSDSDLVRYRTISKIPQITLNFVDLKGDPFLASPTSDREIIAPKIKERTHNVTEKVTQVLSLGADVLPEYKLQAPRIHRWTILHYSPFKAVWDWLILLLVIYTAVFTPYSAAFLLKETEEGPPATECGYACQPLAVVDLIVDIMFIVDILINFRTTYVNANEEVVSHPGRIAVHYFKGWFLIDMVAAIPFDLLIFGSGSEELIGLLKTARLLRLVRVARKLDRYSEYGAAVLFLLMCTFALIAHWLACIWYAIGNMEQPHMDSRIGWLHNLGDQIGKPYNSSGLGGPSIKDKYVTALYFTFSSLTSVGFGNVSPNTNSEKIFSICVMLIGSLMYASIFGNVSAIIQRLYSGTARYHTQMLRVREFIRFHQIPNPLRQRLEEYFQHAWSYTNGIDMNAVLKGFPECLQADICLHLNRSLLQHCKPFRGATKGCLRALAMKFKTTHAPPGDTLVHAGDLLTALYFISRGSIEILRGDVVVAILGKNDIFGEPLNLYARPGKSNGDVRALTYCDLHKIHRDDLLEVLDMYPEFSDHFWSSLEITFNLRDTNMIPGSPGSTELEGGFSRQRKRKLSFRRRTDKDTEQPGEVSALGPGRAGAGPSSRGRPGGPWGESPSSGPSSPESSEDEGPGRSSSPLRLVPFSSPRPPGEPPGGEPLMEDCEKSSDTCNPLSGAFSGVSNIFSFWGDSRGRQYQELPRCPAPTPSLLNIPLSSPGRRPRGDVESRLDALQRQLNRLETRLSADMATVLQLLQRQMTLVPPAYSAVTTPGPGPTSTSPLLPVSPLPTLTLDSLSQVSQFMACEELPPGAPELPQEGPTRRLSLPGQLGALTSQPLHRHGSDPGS
T1 sequence (Q9Y6J6 with tags, fused parts or gaps Q9E partner): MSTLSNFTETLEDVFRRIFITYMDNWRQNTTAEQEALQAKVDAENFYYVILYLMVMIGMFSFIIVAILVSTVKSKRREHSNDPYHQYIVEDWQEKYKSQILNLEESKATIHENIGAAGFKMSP
channels formed with wild type hMiRP1, sequence (Q12809 whole entry): as the sequence (Q12809 whole entry) above
channels formed with wild type hMiRP1, sequence (Q9Y6J6 whole entry partner): as the sequence (Q9Y6J6 with tags, fused parts or gaps Q9E partner) above, with E9Q counted along it

| Molecule | activation V1/2 in 1 mM Ca^2+, 1 mM KCl solution (HERG) [mV] | activation V1/2 mV (HERG) [mV] | deactivation ratio If/(Is + If) (HERG) | deactivation τf s (HERG) [ms] | deactivation τs, s (HERG) | further results |
| --- | --- | --- | --- | --- | --- | --- |
| Q9E-hMiRP1 (from UniProt Q9Y6J6 1-123) | -12 | -12 | 0.8 | 100 | 750 | – |
| T8A-hMiRP1 (from UniProt Q9Y6J6 1-123) | – | -29 | 0.83 | 100 | 590 | – |
| wild type human MiRP1 (from UniProt Q9Y6J6 1-123) | -20 | -21 | 0.82 | 80 | 483 | faster deactivation against HERG alone (τf at -120 mV) (HERG): 3 fold; unitary conductance (oocytes) (HERG): 8 pS |
| M54T-hMiRP1 (from UniProt Q9Y6J6 1-123) | – | -21 | 0.81 | 37 | 266 | faster deactivation against wild type hMiRP1 channels (HERG): 3 fold |
| CC[C@H]1OC(=O)[C@H](C)[C@@H](O[C@H]2C[C@@](C)(OC)[C@@H](O)[C@H](C)O2)[C@H](C)[C@@H](O[C@@H]2O[C@H](C)C[C@H](N(C)C)[C@H]2O)[C@](C)(OC)C[C@@H](C)C(=O)[C@H](C)[C@@H](O)[C@]1(C)O [clarithromycin] | – | – | – | – | – | slope factor [1]: no change; selectivity ratio [2]: 3; slope factor [3]: no change; arrhythmia developed [4]: TdP and VF |
| B1 | – | – | – | – | – | acceleration of single-channel deactivation (HERG): 2.3 fold; increase in deactivation rate against HERG alone (HERG): 7 fold; increase in deactivation rate, plasma-like solution (HERG): ~2 fold |
